Patent US20230242601A1 (published 2023)

B1: SynP130-140 Y133F/Y136F (peptide)
peptide: EEGFQDFEPEA
B2: SynP130-140 Y136F (peptide)
peptide: EEGYQDFEPEA
B3: SynP130-140 Y133W/Y136W (peptide)
peptide: EEGWQDWEPEA
B4: SynP130-140 Y133F/Y136W (peptide)
peptide: EEGFQDWEPEA
B5: SynP130-140 Y136W (peptide)
peptide: EEGYQDWEPEA
B6: SynP130-140 peptide (peptide)
peptide: EEGYQDYEPEA

molecular target: FABP3 fused with a His-tag at the N-terminus; experiment: QCM
Sequence (chain, as listed by the source): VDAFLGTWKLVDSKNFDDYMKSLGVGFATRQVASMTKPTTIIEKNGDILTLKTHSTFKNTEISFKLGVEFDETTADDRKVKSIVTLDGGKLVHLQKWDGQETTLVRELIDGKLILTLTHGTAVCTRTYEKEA

Q: B1 was tested. Which Kd did it give?
A: 2.1 nM

Q: B2 was tested. Which Kd did it give?
A: 7.7 nM

Q: With B3 as the binder, how does the Kd read?
A: 6.2 nM

Q: Which Kd does the source give for B4 here?
A: 6.1 nM

Q: How did the Kd turn out when B5 was run?
A: 6.3 nM

Q: How did the Kd turn out when B6 was run?
A: 6.1 nM
